Data on ten sequences can be found in the DeepSol protein solubility set.

The nature of the data set: soluble on expression in E. coli; label from the status in PepcDB or PDB records.
For the sequence “MANDDLQQRLDKGMYGTPLVNPEEQHKYMGTFRERCRLSMTVAEMKDAQNQKHLLEELAKHPEVTVLLNGEISSDLQSTYIKLLNQHGANFKIVNNFVENNPDSLGLLLAEKHAVDEPVIDVTEKYPQATETPKEEPTAKKSFWQKLFHS”, the “soluble on expression in E. coli” value is recorded as “not soluble”.

As to “GPGSMHVSSPQRAKSEASQPPNGSPPLSSSEPAAVHLYDLDTVFLSKTVISLTDVFTNSTDGPFDLSPLCAPQQQGVEEQQRLQQAAATTASSPSTGDAHCSPSSGATHAHMCSTSLPFSGGSTLRPKAVARGADGQWRTVSTDRGAPASSAFTTACNKPPSQEAHARMLLVPLDSYHFLLTYHDVDVAGQLRGRCDKQTAMATMERLSAASPGCRPPRSGICVVRRLEGEQRGATKASSAATAVLAGAASATRPTLSRIAHGLPLDAFDGWVRDYTVYGLSCNEAVLRAAWEDKARERAEGTLAMPAGAVVEVGESAAPGHESAGGGGSGEERRVTGGGNSRGDNVGGVHISVPPASGSSAEATVEGAAALAPQLSDAPSVLVPTDGAAVGEGKDAATFASPDAARAAMLSPSLDRLHCSSTTSSSSTATPTPSPPTERSEEGGKVGGTVSTTMSASPASTAAQQQQQQNDVLWEEERQRTQRAAAQLRHRFLVSDSAQHALWALEVHLPAMKVRAVSPAEFYALEVEESDEERCQQLPGTARMMATMVTMKHRRHAALQKHERILLMHLHRDWRFLAGRQRLQSRAAARPSQVTATLSRARPAPTHRGRARHRRQIR”, the “soluble on expression in E. coli” value is on record as “soluble”.

On to “MGHHHHHHSHMRQRLLPSVTSLLLVALLFPGSSQARHVNHSATEALGELRERAPGQGTNGFQLLRHAVKRDLLPPRTPPYQGDVPPGIRNTICRMQQGICRLFFCHSGEKKRDICSDPWNRCCVSNTDEEGKEKPEMDGRSGI”, for which the “soluble on expression in E. coli” value was “not soluble”.

Turning to “MDENLRQLAESILTDLTQDAPIANTMLKAKVFASKKNDKDLLSWIEHELNGYEENLPKYRLLDAGVKVDIHRGFQEVLGYNYPMGMVKDEKVRERLLHLPIHGSISEVEELSTKSGEGTIHIDIPIEIWYHHMRHCINGDIQRAYQFATVASVKQIMVKIKSLLIDYFLKIDKGESLSFLSLIKKETPTMQIIAGIVNTGS”, the “soluble on expression in E. coli” value is recorded as “not soluble”.

Regarding “GNYHVTLQASYIAKNVEDVEDAIGVAISQIGKLLNKGSLDYVDIDVGLTICPKCGEPIDCVLVVAKTAIVGILLSMKVFNAESPEHAVRIAKSSIGRALKDIP”, the “soluble on expression in E. coli” value is “not soluble”.

Consider “MSTPDGDEKEQCFHRAIAKTSIYLDREPGNPELTVWLAINKASLAGAQGGFGALSLAKEAKSLLEGVIATSPQTLDGSAYTSLGSLYYKVPGWPIGFGDDDKAEEMLKKALEINPKGIDPNYFYGDFLAEEGRDKEAKVYLTRAMQASPRPLEHHHHHH”, for which the “soluble on expression in E. coli” value is on record as “not soluble”.

Take “MDTVNNYRVLEHKAAGHDGTLTDGDGLLIFKPAFPQELEFYKAIQVRDVSRRKSSADGDAPLCSWMPTYLGVLNEGAKIEQSGDAALLKIDERLSDSTDNLDSIPVKSEKSKQYLVLENLLYGFSKPNILDIKLGKTLYDSKASLEKRERMKRVSETTTSGSLGFRICGMKIQKNPSVLNQLSLEYYEEEADSDYIFINKLYGRSRTDQNVSDAIELYFNNPHLSDARKHQLKKTFLKRLQLFYNTMLEEEVRMISSSLLFIYEGDPERWELLNDVDKLMRDDFIDDDDDDDDNDDDDDDDAEGSSEGPKDKKTTGSLSSMSLIDFAHSEITPGKGYDENVIEGVETLLDIFMKFLEHHHHHH”: the “soluble on expression in E. coli” value is listed as “soluble”.

On to “SPMAVEEVIEMQGLSLDPTSHRVMAGEEPLEMGPTEFKLLHFFMTHPERVYSREQLLNHVWGTNVYVEDRTVDVHIRRLRKALEPGGHDRMVQTVRGTGYRFSTRF”, for which the “soluble on expression in E. coli” value was “soluble”.

Regarding “MGSSHHHHHHSSGLVPRGSHMESAIGEHLQCPRTLTRRVPDTYTPPFPMWVGRADDALQQVVMGYLGVQFRDEDQRPAALQAMRDIVAGFDLPDGPAHHDLTHHIDNQGYENLIVVGYWKDVSSQHRWSTSTPIASWWESEDRLSDGLGFFREIVAPRAEQFETLYAFQEDLPGVGAVMDGISGEINEHGYWGSMRERFPISQTDWMQASGELRVIAGDPAVGGRVVVRGHDNIALIRSGQDWADAEADERSLYLDEILPTLQSGMDFLRDNGPAVGCYSNRFVRNIDIDGNFLDLSYNIGHWASLDQLERWSESHPTHLRIFTTFFRVAAGLSKLRLYHEVSVFDAADQLYEYINCHPGTGMLRDAVTIAEH”, the “soluble on expression in E. coli” value is given as “soluble”.

For “TDSTGIDLHEFLVNTLKKNPRDRMMLLKLEQEILEFINDNNNQFKKFPQMTSYHRMLLHRVAAYFGMDHNVDQTGKAVIINKTSNTRIPEQRFSEHIKDEKNTEFQQRFIL”, the “soluble on expression in E. coli” value is listed as “soluble”.
